The values that follow come from patent publication US20040106557A1.

The target in assay [1] is Prostate specific antigen (PSA), purified from human seminal fluid (human) (UniProt P07288). The assay can be described thus: inhibition IFMA: 200 µl fraction preincubated with PSA captured by MAb 5E4, then GST-C4 (167 nM); competitor GST-C-4.
Assay [2] concerns the target PSA-alpha-2-macroglobulin complex (PSA-A2M), purified (human) (UniProt P07288). The assay can be described thus: cell-based or functional assay.

Ends that are not written are not given here.

For the molecule CVAYCIEHHCWTC (peptide, part only; not given: vector flanking residues, part only) [peptide cleaved from GST-C-4 by thrombin (about 3 kD, estimated 31 residues)], the reduction of the binding of GST-peptide to PSA (%) in assay [1] stood at 30%.

B1: chemically synthesized peptide C-4 with GA flanks (…) (peptide)
peptide: GACVAYCIEHHCWTCGA
modifications: disulfide (positions not given here); not fully specified (bridges); also: cyclic, disulphide bonds between cysteines, pairing of the four Cys not given here
Take B1: the enzyme activity of A2M-complexed PSA (S-2586, OD 405 nm), 50-fold molar excess of peptide in assay [2] was 2 fold.
